Data reported in patent US20100254972A1.

Experiments:
[1] = molecular target: human TNFR1 (soluble recombinant protein) (human) (UniProt P19438); experiment: phage ELISA, plate coated with 1 nM TNFR1, anti-M13-HRP; trypsin 0 µg/ml; phage input 1.13E+10
[2] = molecular target: human TNFR1 (soluble recombinant protein) (human) (UniProt P19438); experiment: phage ELISA, plate coated with 1 nM TNFR1, anti-M13-HRP; trypsin 0 µg/ml; phage input 1.41E+09
[3] = molecular target: human TNFR1 (soluble recombinant protein) (human) (UniProt P19438); experiment: phage ELISA, plate coated with 1 nM TNFR1, anti-M13-HRP; trypsin 0 µg/ml; phage input 2.26E+10
[4] = molecular target: human TNFR1 (soluble recombinant protein) (human) (UniProt P19438); experiment: phage ELISA, plate coated with 1 nM TNFR1, anti-M13-HRP; trypsin 0 µg/ml; phage input 2.82E+09
[5] = molecular target: human TNFR1 (soluble recombinant protein) (human) (UniProt P19438); experiment: phage ELISA, plate coated with 1 nM TNFR1, anti-M13-HRP; trypsin 0 µg/ml; phage input 3.52E+08
[6] = molecular target: human TNFR1 (soluble recombinant protein) (human) (UniProt P19438); experiment: phage ELISA, plate coated with 1 nM TNFR1, anti-M13-HRP; trypsin 0 µg/ml; phage input 4.51E+10
[7] = molecular target: human TNFR1 (soluble recombinant protein) (human) (UniProt P19438); experiment: phage ELISA, plate coated with 1 nM TNFR1, anti-M13-HRP; trypsin 0 µg/ml; phage input 5.64E+09
[8] = molecular target: human TNFR1 (soluble recombinant protein) (human) (UniProt P19438); experiment: phage ELISA, plate coated with 1 nM TNFR1, anti-M13-HRP; trypsin 0 µg/ml; phage input 7.05E+08
[9] = molecular target: human TNFR1 (soluble recombinant protein) (human) (UniProt P19438); experiment: phage ELISA, plate coated with 1 nM TNFR1, anti-M13-HRP; trypsin 1 mg/ml; phage input 1.13E+10
[10] = molecular target: human TNFR1 (soluble recombinant protein) (human) (UniProt P19438); experiment: phage ELISA, plate coated with 1 nM TNFR1, anti-M13-HRP; trypsin 1 mg/ml; phage input 1.41E+09
[11] = molecular target: human TNFR1 (soluble recombinant protein) (human) (UniProt P19438); experiment: phage ELISA, plate coated with 1 nM TNFR1, anti-M13-HRP; trypsin 1 mg/ml; phage input 2.26E+10
[12] = molecular target: human TNFR1 (soluble recombinant protein) (human) (UniProt P19438); experiment: phage ELISA, plate coated with 1 nM TNFR1, anti-M13-HRP; trypsin 1 mg/ml; phage input 2.82E+09
[13] = molecular target: human TNFR1 (soluble recombinant protein) (human) (UniProt P19438); experiment: phage ELISA, plate coated with 1 nM TNFR1, anti-M13-HRP; trypsin 1 mg/ml; phage input 3.52E+08
[14] = molecular target: human TNFR1 (soluble recombinant protein) (human) (UniProt P19438); experiment: phage ELISA, plate coated with 1 nM TNFR1, anti-M13-HRP; trypsin 1 mg/ml; phage input 5.64E+09
[15] = molecular target: human TNFR1 (soluble recombinant protein) (human) (UniProt P19438); experiment: phage ELISA, plate coated with 1 nM TNFR1, anti-M13-HRP; trypsin 1 mg/ml; phage input 7.05E+08
[16] = molecular target: human TNFR1 (soluble recombinant protein) (human) (UniProt P19438); experiment: phage ELISA, plate coated with 1 nM TNFR1, anti-M13-HRP; trypsin 10 µg/ml; phage input 1.13E+10
[17] = molecular target: human TNFR1 (soluble recombinant protein) (human) (UniProt P19438); experiment: phage ELISA, plate coated with 1 nM TNFR1, anti-M13-HRP; trypsin 10 µg/ml; phage input 1.41E+09
[18] = molecular target: human TNFR1 (soluble recombinant protein) (human) (UniProt P19438); experiment: phage ELISA, plate coated with 1 nM TNFR1, anti-M13-HRP; trypsin 10 µg/ml; phage input 2.26E+10
[19] = molecular target: human TNFR1 (soluble recombinant protein) (human) (UniProt P19438); experiment: phage ELISA, plate coated with 1 nM TNFR1, anti-M13-HRP; trypsin 10 µg/ml; phage input 2.82E+09
[20] = molecular target: human TNFR1 (soluble recombinant protein) (human) (UniProt P19438); experiment: phage ELISA, plate coated with 1 nM TNFR1, anti-M13-HRP; trypsin 10 µg/ml; phage input 3.52E+08
[21] = molecular target: human TNFR1 (soluble recombinant protein) (human) (UniProt P19438); experiment: phage ELISA, plate coated with 1 nM TNFR1, anti-M13-HRP; trypsin 10 µg/ml; phage input 4.51E+10
[22] = molecular target: human TNFR1 (soluble recombinant protein) (human) (UniProt P19438); experiment: phage ELISA, plate coated with 1 nM TNFR1, anti-M13-HRP; trypsin 10 µg/ml; phage input 5.64E+09
[23] = molecular target: human TNFR1 (soluble recombinant protein) (human) (UniProt P19438); experiment: phage ELISA, plate coated with 1 nM TNFR1, anti-M13-HRP; trypsin 10 µg/ml; phage input 7.05E+08
[24] = molecular target: human TNFR1 (soluble recombinant protein) (human) (UniProt P19438); experiment: phage ELISA, plate coated with 1 nM TNFR1, anti-M13-HRP; trypsin 100 µg/ml; phage input 1.13E+10
[25] = molecular target: human TNFR1 (soluble recombinant protein) (human) (UniProt P19438); experiment: phage ELISA, plate coated with 1 nM TNFR1, anti-M13-HRP; trypsin 100 µg/ml; phage input 1.41E+09
[26] = molecular target: human TNFR1 (soluble recombinant protein) (human) (UniProt P19438); experiment: phage ELISA, plate coated with 1 nM TNFR1, anti-M13-HRP; trypsin 100 µg/ml; phage input 2.26E+10
[27] = molecular target: human TNFR1 (soluble recombinant protein) (human) (UniProt P19438); experiment: phage ELISA, plate coated with 1 nM TNFR1, anti-M13-HRP; trypsin 100 µg/ml; phage input 2.82E+09
[28] = molecular target: human TNFR1 (soluble recombinant protein) (human) (UniProt P19438); experiment: phage ELISA, plate coated with 1 nM TNFR1, anti-M13-HRP; trypsin 100 µg/ml; phage input 3.52E+08
[29] = molecular target: human TNFR1 (soluble recombinant protein) (human) (UniProt P19438); experiment: phage ELISA, plate coated with 1 nM TNFR1, anti-M13-HRP; trypsin 100 µg/ml; phage input 4.51E+10
[30] = molecular target: human TNFR1 (soluble recombinant protein) (human) (UniProt P19438); experiment: phage ELISA, plate coated with 1 nM TNFR1, anti-M13-HRP; trypsin 100 µg/ml; phage input 5.64E+09
[31] = molecular target: human TNFR1 (soluble recombinant protein) (human) (UniProt P19438); experiment: phage ELISA, plate coated with 1 nM TNFR1, anti-M13-HRP; trypsin 100 µg/ml; phage input 7.05E+08
[32] = molecular target: human TNFR1 (soluble recombinant protein) (human) (UniProt P19438); experiment: phage ELISA, plate coated with 1 nM TNFR1, anti-M13-HRP; phage treated 1 h RT with trypsin 1 mg/ml; phage input 4.51E+10

human TNFR1 (soluble recombinant protein) (human), sequence (P19438 41-201 limits assumed): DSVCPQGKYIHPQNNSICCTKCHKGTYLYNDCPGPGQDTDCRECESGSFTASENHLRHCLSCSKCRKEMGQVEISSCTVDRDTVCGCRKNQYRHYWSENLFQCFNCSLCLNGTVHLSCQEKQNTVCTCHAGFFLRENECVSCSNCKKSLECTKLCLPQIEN

Which results are given for DOM1h-131?
phage ELISA signal [1]: 0.949; phage ELISA signal [2]: 0.85; phage ELISA signal [3]: 0.944; phage ELISA signal [4]: 0.946; phage ELISA signal [5]: 0.577; phage ELISA signal [6]: 0.916; phage ELISA signal [7]: 0.962; phage ELISA signal [8]: 0.705; phage ELISA signal [9]: 0.183; phage ELISA signal [10]: 0.089; phage ELISA signal [11]: 0.229; phage ELISA signal [12]: 0.114; phage ELISA signal [13]: 0.08; phage ELISA signal [14]: 0.133; phage ELISA signal [15]: 0.084; phage ELISA signal [16]: 0.86; phage ELISA signal [17]: 0.409; phage ELISA signal [18]: 0.802; phage ELISA signal [19]: 0.573; phage ELISA signal [20]: 0.213; phage ELISA signal [21]: 0.784; phage ELISA signal [22]: 0.695; phage ELISA signal [23]: 0.286; phage ELISA signal [24]: 0.284; phage ELISA signal [25]: 0.115; phage ELISA signal [26]: 0.377; phage ELISA signal [27]: 0.141; phage ELISA signal [28]: 0.084; phage ELISA signal [29]: 0.418; phage ELISA signal [30]: 0.196; phage ELISA signal [31]: 0.084; phage ELISA signal [32]: 0.284
